Experimental data: patent US9995740B2, “Method of determining temperature and method of detecting a target peptide” (SYSMEX CORPORATION, priority 2015, dated 2018)
Residues, ends and D or L forms follow the SMILES beside them. No end group written: not given here.

Assays:
[1] = molecular target: T1, HSA (Homo sapiens, UniProt P02768); assay: Kd of TMR-labeled peptide for HSA by fluorescence intensity difference and Hill's equation; assay type: binding; conditions: for suitability as linker peptide of the peptide for temperature determination (FIG. 8): classified by Kd for HSA, 500 μM or more = suitable
T1 construct: purchased Sigma-Aldrich Co. LLC
Description: Each of the resulting mixtures was subjected to measurement with a spectrophotofluorometer [product name: F-7000, manufactured by Hitachi High-Technologies Corporation] and the fluorescence intensity with an excitation wavelength of 540 nm and a fluorescence wavelength of 580 nm (hereinafter, referred to as “fluorescence intensity A”) was measured.
Each of the resulting mixtures was subjected to measurement with a spectrophotofluorometer [product name: F-7000, manufactured by Hitachi High-Technologies Corporation] and the fluorescence intensity with an excitation wavelength of 540 nm and a fluorescence wavelength of 580 nm (hereinafter, referred to as “fluorescence intensity B”) was measured.
Equation (I): Difference between fluorescence intensities=fluorescence intensity A−fluorescence intensity B (I)
A difference between the fluorescence intensities was determined in accordance with the above equation.

[2] = Isoelectric point (pI) of the peptides of Table 3; assay type: physicochemical
[3] = molecular target: T1, HSA; assay: Hydrothermal treatment in the presence of HSA or serum, partition of peptide between supernatant and insoluble fraction (SDS-PAGE, fluorescence image); conditions: for band derived from the peptide in supernatant of hydrothermally-treated sample: SDS-PAGE fluorescence image
[4] = microwave hydrothermal treatment 160° C., in the presence of HSA
[5] = heat transfer 200° C. for 40 minutes, in the presence of HSA (300 or 600 μM), phosphate buffered saline

CSCC[C@H](NC(=O)[C@H](CO)NC(=O)[C@H](Cc1ccc(O)cc1)NC(=O)[C@@H](N)CO)C(=O)N[C@@H](CCC(=O)O)C(=O)N[C@@H](Cc1c[nH]cn1)C(=O)N[C@@H](Cc1ccccc1)C(=O)N[C@@H](CCCNC(=N)N)C(=O)N[C@@H](Cc1c[nH]c2ccccc12)C(=O)NCC(=O)N[C@@H](CCCCN)C(=O)N1CCC[C@H]1C(=O)N[C@H](C(=O)NCC(=O)N[C@@H](CCCCN)C(=O)N[C@@H](CCCCN)C(=O)N[C@@H](CCCNC(=N)N)C(=O)N[C@@H](CCCNC(=N)N)C(=O)N1CCC[C@H]1C(=O)N[C@H](C(=O)N[C@@H](CCCCN)C(=O)N[C@H](C(=O)N[C@@H](Cc1ccc(O)cc1)C(=O)N1CCC[C@H]1C(=O)N[C@@H](CC(N)=O)C(=O)N[C@@H](C)C(=O)NCC(=O)N[C@@H](CCC(=O)O)C(=O)N[C@@H](CC(N)=O)C(=O)N[C@@H](CCC(=O)O)C(=O)N[C@@H](CO)C(=O)N[C@@H](C)C(=O)N[C@@H](CCC(=O)O)C(=O)N[C@@H](C)C(=O)N[C@@H](Cc1ccccc1)C(=O)N1CCC[C@H]1C(=O)N[C@@H](CC(C)C)C(=O)N[C@@H](CCC(=O)O)C(=O)N[C@@H](Cc1ccccc1)C(=O)O)C(C)C)C(C)C)C(C)C [ACTH (1-39), Adrenocorticotropic hormone (ACTH) (1-39)] (H-SYSMEHFRWGKPVGKKRRPVKVYPNAGENESAEAFPLEF-OH; N-terminus and C-terminus assumed)
suitability as linker peptide of the peptide for temperature determination (FIG. 8) [1]: suitable
pI [2]: 9.3

CC[C@H](C)[C@H](NC(=O)[C@H](CCC(=O)O)NC(=O)[C@H](CC(=O)O)NC(=O)[C@@H](NC(=O)[C@H](CS)NC(=O)[C@H](CC(C)C)NC(=O)[C@@H]1CCCN1C(=O)[C@H](CCCNC(=N)N)NC(=O)[C@H](Cc1c[nH]c2ccccc12)NC(=O)CNC(=O)[C@H](CS)NC(=O)[C@H](CC(C)C)NC(=O)[C@H](Cc1c[nH]c2ccccc12)NC(=O)[C@H](CCC(=O)O)NC(=O)[C@H](CC(=O)O)NC(=O)[C@@H](N)CC(=O)O)[C@@H](C)CC)C(=O)N[C@@H](CC(C)C)C(=O)N[C@@H](CCCNC(=N)N)C(=O)O [SA21] (H-DDEWLCGWRPLCIDEILR-OH; N-terminus and C-terminus assumed)
Kd ([1]; TMR-labeled peptide, phosphate buffered saline, excitation 540 nm / fluorescence 580 nm): < 500 µM

(Arg) 10: SEQ ID NO: 21, 10 amino acid residues
suitability as linker peptide of the peptide for temperature determination (FIG. 8) [1]: suitable
pI [2]: 13

(Glu) 10: SEQ ID NO: 18, 10 amino acid residues
suitability as linker peptide of the peptide for temperature determination (FIG. 8) [1]: suitable
pI [2]: 3.5

(Gly) 10: SEQ ID NO: 20, 10 amino acid residues
suitability as linker peptide of the peptide for temperature determination (FIG. 8) [1]: suitable
pI [2]: 5.5

(His)3: SEQ ID NO: 11, 3 amino acid residues (HHH; Synthetic sequence of (His)3)
pI [2]: 7

(Lys)10: SEQ ID NO: 6, 10 amino acid residues (KKKKKKKKKK; Synthetic sequence of (Lys)10)
pI [2]: 11

ACTH (1-41): SEQ ID NO: 17, 41 amino acid residues (GPSYSMEHFRWGKPVGKKRRPVKVYPNGAEDESAEAFPLEF; Synthetic sequence of ACTH (1-41))
suitability as linker peptide of the peptide for temperature determination (FIG. 8) [1]: suitable
pI [2]: 8.3

ACTH (2-16): SEQ ID NO: 10, 15 amino acid residues (YSMEHFRWGKPVGKK; Synthetic sequence of ACTH (2-16))
pI [2]: 10

ACTH (7-11): SEQ ID NO: 5, 5 amino acid residues (FRWGK; Synthetic sequence of ACTH (7-11))
pI [2]: 11

Blood coagulation factor XIII (Factor XIII): SEQ ID NO: 15, 25 amino acid residues (AVPPNNSNAAEDDLPTVELQGVVPR; Synthetic sequence of Factor XIII)
pI [2]: 3.9

Brain natriuretic peptide [BNP]
suitability as linker peptide of the peptide for temperature determination (FIG. 8) [1]: suitable
pI [2]: 11

C4a: SEQ ID NO: 23, 15 amino acid residues (NGFKSHALQLNNRQI; Synthetic sequence of C4a) [Peptide C4a]
suitability as linker peptide of the peptide for temperature determination (FIG. 8) [1]: suitable
pI [2]: 11

C-peptide: SEQ ID NO: 31, 31 amino acid residues (EAEDLQVGQVELGGGPGAGSLQPLALEGSLQ; Synthetic sequence of C-peptide)
suitability as linker peptide of the peptide for temperature determination (FIG. 8) [1]: suitable
pI [2]: 3.5

Colistin
suitability as linker peptide of the peptide for temperature determination (FIG. 8) [1]: suitable

Cp6: SEQ ID NO: 22, 8 amino acid residues (DIGEEFNQ; Synthetic sequence of Cp6)
suitability as linker peptide of the peptide for temperature determination (FIG. 8) [1]: suitable
pI [2]: 3.6

Dynorphin A (YGGFLRRIRPKLK; Synthetic sequence of Dynorphin A)
suitability as linker peptide of the peptide for temperature determination (FIG. 8) [1]: suitable
pI [2]: 11.7

Fibrinogen α: SEQ ID NO: 12, 25 amino acid residues (DEAGSEADHEGTHSTKRGHAKSRPV; Synthetic sequence of Fibrinogen alpha)
pI [2]: 6.3

Glucagon (1-29): SEQ ID NO: 4, 29 amino acid residues
pI [2]: 6.8

HSA 237-249 fragment: SEQ ID NO: 26, 13 amino acid residues (AWAVARLSQRFPK; Synthetic sequence of HSA237-249)
suitability as linker peptide of the peptide for temperature determination (FIG. 8) [1]: suitable
pI [2]: 12

HSA 599-609 fragment: SEQ ID NO: 30, 11 amino acid residues (LVAASQAALGL; Synthetic sequence of HSA599-609)
suitability as linker peptide of the peptide for temperature determination (FIG. 8) [1]: suitable
pI [2]: 5.5

ITIH4: SEQ ID NO: 28, 21 amino acid residues (NVHSAGAAGSRMNFRPGVLSS; Synthetic sequence of ITIH4)
suitability as linker peptide of the peptide for temperature determination (FIG. 8) [1]: suitable
pI [2]: 12

Kininogen: SEQ ID NO: 7, 19 amino acid residues (HNLGHGHKHERDQGHGHQR; Synthetic sequence of Kininorgen)
pI [2]: 8.8

TMR-labeled ACTH (1-24): ACTH (1-24) labeled with tetramethyl rhodamine (TMR)
band derived from the peptide in supernatant of hydrothermally-treated sample [3, 4]: not observed

TMR-labeled ACTH (1-39): ACTH (1-39) labeled with tetramethyl rhodamine (TMR) (SYSMEHFRWGKPVGKKRRPVKVYPNAGENESAEAFPLEF; also: tetramethyl rhodamine (TMR) label, position not given here)
band derived from the peptide in supernatant of hydrothermally-treated sample [3, 4]: observed

TMR-labeled HSA 599-609 fragment: HSA 599-609 fragment labeled with tetramethyl rhodamine (TMR) (LVAASQAALGL; also: tetramethyl rhodamine (TMR) label, position not given here)
band derived from the peptide in supernatant of hydrothermally-treated sample [3, 5]: observed

TMR-labeled SA21: SA21 labeled with tetramethyl rhodamine; used as peptide for phase partition determination (DDEWLCGWRPLCIDEILR; cysteine pairing not given here; also: tetramethyl rhodamine (TMR) label, position not given here)
partition of peptide after hydrothermal treatment ([3]; 160° C., serum-containing sample M, observed under visible light): transferred to the insoluble fraction
band derived from the peptide in supernatant of hydrothermally-treated sample [3, 5]: light band

lqp: SEQ ID NO: 13, 12 amino acid residues (GKYFNAAEYHAQ; Synthetic sequence of lqp)
pI [2]: 6.8

β-amyloid (1-40): SEQ ID NO: 1, 40 amino acid residues
pI [2]: 5.3

β-amyloid (1-42): SEQ ID NO: 2, 42 amino acid residues
pI [2]: 5.3
